Tests used:
Assay in all cases: holdup assay
Parameters in all cases: key: below the threshold = too weak to quantify, mostly under pKd 3.1 to 4
[1] = target: Inadl_8, Q8NI35
[2] = target: T1, SNTA1, Q13424
T1 sequence (Q13424 82-180, limits assumed, looked up): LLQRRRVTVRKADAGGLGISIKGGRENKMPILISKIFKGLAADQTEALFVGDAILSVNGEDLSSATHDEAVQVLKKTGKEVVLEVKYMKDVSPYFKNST

[3] = target: GRIP2_5, Q9C0E4
[4] = target: T2, DLG3_2, Q92796
T2 sequence (Q92796 221-321, limits assumed, looked up): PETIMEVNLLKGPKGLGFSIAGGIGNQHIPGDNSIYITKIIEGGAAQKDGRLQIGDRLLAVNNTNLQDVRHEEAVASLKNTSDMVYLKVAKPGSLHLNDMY

[5] = target: T3, TX1BP3, O14907
T3 sequence (O14907 10-122, limits assumed, looked up): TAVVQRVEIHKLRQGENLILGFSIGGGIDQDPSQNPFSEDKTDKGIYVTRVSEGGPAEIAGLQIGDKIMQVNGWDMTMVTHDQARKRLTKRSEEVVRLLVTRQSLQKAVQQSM

[6] = target: LNX1_2, Q8TBB1
[7] = target: TJP1_2, Q07157
[8] = target: T4, MPP6, Q9NZW5
T4 sequence (Q9NZW5 125-219, limits assumed, looked up): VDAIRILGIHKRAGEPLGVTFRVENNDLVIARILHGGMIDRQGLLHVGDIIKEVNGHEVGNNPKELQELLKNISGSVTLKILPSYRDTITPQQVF

[9] = target: DLG2_3, Q15700
[10] = target: DLG1_2, Q12959
[11] = target: DLG2_2, Q15700
[12] = target: GRIP2_7, Q9C0E4
[13] = target: T5, APBA2_2, Q99767
T5 sequence (Q99767 654-744, limits assumed, looked up): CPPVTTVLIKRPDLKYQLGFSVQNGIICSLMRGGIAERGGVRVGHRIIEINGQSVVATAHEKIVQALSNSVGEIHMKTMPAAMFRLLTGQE

[14] = target: FRMPD2_2, Q68DX3
[15] = target: T6, NHERF3_1, Q5T2W1
T6 sequence (Q5T2W1 4-100, limits assumed, looked up): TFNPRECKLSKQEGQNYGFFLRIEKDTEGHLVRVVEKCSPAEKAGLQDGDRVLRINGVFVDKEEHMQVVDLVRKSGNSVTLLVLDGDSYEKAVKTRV

[16] = target: T7, GRIP1_3, Q9Y3R0
T7 sequence (Q9Y3R0 247-346, limits assumed, looked up): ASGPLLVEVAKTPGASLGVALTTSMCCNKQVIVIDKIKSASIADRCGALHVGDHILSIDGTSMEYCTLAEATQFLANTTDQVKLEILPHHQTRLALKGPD

[17] = target: PARD3_3, Q8TEW0
[18] = target: T8, MPDZ_5, O75970
T8 sequence (O75970 695-796, limits assumed, looked up): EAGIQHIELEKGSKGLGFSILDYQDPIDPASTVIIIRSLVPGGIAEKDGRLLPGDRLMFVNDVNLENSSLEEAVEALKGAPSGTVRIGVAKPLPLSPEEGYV

[19] = target: T9, SNTB1, Q13884
T9 sequence (Q13884 107-205, limits assumed, looked up): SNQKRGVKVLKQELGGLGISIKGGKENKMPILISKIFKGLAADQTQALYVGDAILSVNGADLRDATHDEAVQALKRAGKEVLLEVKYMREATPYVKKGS

[20] = target: T10, LIN7C, Q9NUP9
T10 sequence (Q9NUP9 88-185, limits assumed, looked up): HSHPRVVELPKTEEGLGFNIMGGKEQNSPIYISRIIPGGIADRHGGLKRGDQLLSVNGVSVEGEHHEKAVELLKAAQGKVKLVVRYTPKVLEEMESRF

[21] = target: T11, PDZD7_3, Q9H5P4
T11 sequence (Q9H5P4 857-944, limits assumed, looked up): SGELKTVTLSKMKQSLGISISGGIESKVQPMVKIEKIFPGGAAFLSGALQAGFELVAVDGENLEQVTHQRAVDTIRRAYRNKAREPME

[22] = target: T12, SNTG1, Q9NSN8
T12 sequence (Q9NSN8 52-150, limits assumed, looked up): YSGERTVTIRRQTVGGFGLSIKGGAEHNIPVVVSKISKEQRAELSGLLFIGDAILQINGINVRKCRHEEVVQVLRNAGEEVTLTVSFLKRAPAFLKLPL

[23] = target: GIPC2, Q8TF65
[24] = target: T13, NHERF3_4, Q5T2W1
T13 sequence (Q5T2W1 373-468, limits assumed, looked up): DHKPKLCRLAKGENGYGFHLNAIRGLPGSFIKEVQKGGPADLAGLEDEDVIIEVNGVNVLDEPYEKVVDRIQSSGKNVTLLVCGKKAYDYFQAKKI

[25] = target: SCRIB_2, Q14160
[26] = plain residues with an end cap or a label only (N-terminal biotin on a linker: ahx)
[27] = plain residues with an end cap or a label only (N-terminal biotin on a linker: ado-ado, ttds)
[28] = plain residues with an end cap or a label only (N-terminal biotin on a linker: ttds)
[29] = plain residues with an end cap or a label only (N-terminal biotin on a linker: ado-ado)

PARD3_3, Q8TEW0, sequence (Q8TEW0 582-685): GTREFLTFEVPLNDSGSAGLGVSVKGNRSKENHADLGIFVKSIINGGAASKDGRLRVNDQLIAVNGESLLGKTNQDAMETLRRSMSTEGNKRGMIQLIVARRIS
DLG1_2, Q12959, sequence (Q12959 314-412): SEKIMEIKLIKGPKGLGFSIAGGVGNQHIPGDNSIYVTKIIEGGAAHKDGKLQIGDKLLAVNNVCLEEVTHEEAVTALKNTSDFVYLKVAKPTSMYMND
SCRIB_2, Q14160, sequence (Q14160 857-960): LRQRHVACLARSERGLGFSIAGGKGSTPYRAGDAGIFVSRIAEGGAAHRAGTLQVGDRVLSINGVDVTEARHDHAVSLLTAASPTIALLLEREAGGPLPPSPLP
LNX1_2, Q8TBB1, sequence (Q8TBB1 371-470): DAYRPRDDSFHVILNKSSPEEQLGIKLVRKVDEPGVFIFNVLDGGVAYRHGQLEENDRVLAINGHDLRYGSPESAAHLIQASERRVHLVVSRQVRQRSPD
Inadl_8, Q8NI35, sequence (Q8NI35 1425-1530): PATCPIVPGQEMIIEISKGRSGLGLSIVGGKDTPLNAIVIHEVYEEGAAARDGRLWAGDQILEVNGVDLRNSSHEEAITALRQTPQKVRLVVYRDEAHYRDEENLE
TJP1_2, Q07157, sequence (Q07157 181-274): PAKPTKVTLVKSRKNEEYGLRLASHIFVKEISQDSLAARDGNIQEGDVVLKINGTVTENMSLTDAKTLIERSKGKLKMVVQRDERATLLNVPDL
FRMPD2_2, Q68DX3, sequence (Q68DX3 944-1038): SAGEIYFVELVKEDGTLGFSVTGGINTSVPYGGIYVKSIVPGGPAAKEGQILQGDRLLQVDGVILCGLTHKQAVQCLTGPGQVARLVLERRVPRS
GRIP2_7, Q9C0E4, sequence (Q9C0E4 934-1023): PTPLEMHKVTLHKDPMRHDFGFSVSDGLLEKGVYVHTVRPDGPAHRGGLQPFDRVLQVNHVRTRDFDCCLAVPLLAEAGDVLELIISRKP
GIPC2, Q8TF65, sequence (Q8TF65 112-203): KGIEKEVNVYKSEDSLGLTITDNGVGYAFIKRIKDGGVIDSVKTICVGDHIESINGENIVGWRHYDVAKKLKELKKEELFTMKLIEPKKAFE
GRIP2_5, Q9C0E4, sequence (Q9C0E4 544-642): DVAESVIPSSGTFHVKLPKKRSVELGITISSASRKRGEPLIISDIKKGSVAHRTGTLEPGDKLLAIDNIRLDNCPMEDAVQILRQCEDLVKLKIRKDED

SKKNELFSNL [NHERF1, O14745]
pKd [1, 26]: below the threshold | pKd [2, 26]: below the threshold | pKd [3, 26]: below the threshold | pKd [4, 26]: below the threshold | pKd [5, 26]: below the threshold | pKd [6, 26]: below the threshold | pKd [7, 26]: below the threshold | pKd [8, 26]: below the threshold | pKd [9, 26]: below the threshold | pKd [10, 26]: below the threshold | pKd [11, 26]: below the threshold | pKd [12, 26]: below the threshold | pKd [13, 26]: below the threshold | pKd [14, 26]: below the threshold | pKd [15, 26]: below the threshold | pKd [16, 26]: below the threshold | pKd [17, 26]: below the threshold | pKd [18, 26]: below the threshold | pKd [19, 26]: below the threshold | pKd [20, 26]: below the threshold | pKd [21, 26]: below the threshold | pKd [22, 26]: below the threshold | pKd [23, 26]: below the threshold | pKd [24, 26]: below the threshold | pKd [25, 26]: below the threshold

SNAKAVETDV [KCNA4, P22459]
pKd [1, 27]: below the threshold | pKd [2, 27]: 4.7 | pKd [3, 27]: below the threshold | pKd [4, 27]: 5.23 | pKd [5, 27]: 4.49 | pKd [6, 27]: below the threshold | pKd [7, 27]: below the threshold | pKd [8, 27]: below the threshold | pKd [9, 27]: below the threshold | pKd [10, 27]: 5.42 | pKd [11, 27]: 5 | pKd [12, 27]: below the threshold | pKd [13, 27]: below the threshold | pKd [14, 27]: 3.52 | pKd [15, 27]: below the threshold | pKd [16, 27]: below the threshold | pKd [17, 27]: below the threshold | pKd [18, 27]: below the threshold | pKd [19, 27]: 4.71 | pKd [20, 27]: below the threshold | pKd [21, 27]: below the threshold | pKd [22, 27]: 4.89 | pKd [23, 27]: below the threshold | pKd [24, 27]: below the threshold | pKd [25, 27]: 4.67

PPRQRSETQV [HPV82-E6, Q9IR59]
pKd [1, 28]: below the threshold | pKd [2, 28]: 4.15 | pKd [3, 28]: below the threshold | pKd [4, 28]: 4.98 | pKd [5, 28]: 4.14 | pKd [6, 28]: below the threshold | pKd [7, 28]: below the threshold | pKd [8, 28]: below the threshold | pKd [9, 28]: 4.9 | pKd [10, 28]: 5.02 | pKd [11, 28]: 4.79 | pKd [12, 28]: below the threshold | pKd [13, 28]: below the threshold | pKd [14, 28]: below the threshold | pKd [15, 28]: 4.03 | pKd [16, 28]: below the threshold | pKd [17, 28]: below the threshold | pKd [18, 28]: below the threshold | pKd [19, 28]: 4.05 | pKd [20, 28]: 3.64 | pKd [21, 28]: 3.84 | pKd [22, 28]: 3.99 | pKd [23, 28]: below the threshold | pKd [24, 28]: below the threshold | pKd [25, 28]: 4.26

SSIDLWETAL [SLC15A5, A6NIM6]
pKd [1, 28]: below the threshold | pKd [2, 28]: 5.19 | pKd [3, 28]: below the threshold | pKd [4, 28]: 4.28 | pKd [5, 28]: 5.24 | pKd [6, 28]: below the threshold | pKd [7, 28]: below the threshold | pKd [8, 28]: below the threshold | pKd [9, 28]: 3.73 | pKd [10, 28]: 4.4 | pKd [11, 28]: 3.88 | pKd [12, 28]: below the threshold | pKd [13, 28]: below the threshold | pKd [14, 28]: 4.3 | pKd [15, 28]: 6.25 | pKd [16, 28]: below the threshold | pKd [17, 28]: 4.44 | pKd [18, 28]: below the threshold | pKd [19, 28]: 5.41 | pKd [20, 28]: 5.21 | pKd [21, 28]: 5.56 | pKd [22, 28]: 5.41 | pKd [23, 28]: 4.04 | pKd [24, 28]: 4.94 | pKd [25, 28]: 5.14

ELKAEDEVQI [DCHS2, Q6V1P9]
pKd [1, 29]: below the threshold | pKd [2, 29]: below the threshold | pKd [3, 29]: below the threshold | pKd [4, 29]: 3.59 | pKd [5, 29]: below the threshold | pKd [6, 29]: below the threshold | pKd [7, 29]: 3.87 | pKd [8, 29]: below the threshold | pKd [9, 29]: below the threshold | pKd [10, 29]: below the threshold | pKd [11, 29]: below the threshold | pKd [12, 29]: below the threshold | pKd [13, 29]: below the threshold | pKd [14, 29]: below the threshold | pKd [15, 29]: below the threshold | pKd [16, 29]: below the threshold | pKd [17, 29]: 4.74 | pKd [18, 29]: below the threshold | pKd [19, 29]: below the threshold | pKd [20, 29]: below the threshold | pKd [21, 29]: below the threshold | pKd [22, 29]: below the threshold | pKd [23, 29]: below the threshold | pKd [24, 29]: below the threshold | pKd [25, 29]: below the threshold

— publication PMC9482650, “Quantitative fragmentomics allow affinity mapping of interactomes” (Nature Communications, 2022)
